Data published in US20100233079A1 (AbbVie / Abbott, published 2010).
Where a chain is given by its changes, count along the chain named. One block for each binder: values may come before it.

Key:
[1] = biological target: T1, NRP1 (Neuropilin-1 Npn-1-His tag) (UniProt O14786-2 22-644, limits assumed); assay: direct bind ELISA, antigen on plate
T1 construct: Bought antigen with a His tag
Experimental: Enzyme Linked Immunosorbent Assays to screen for antibodies that bind a desired target antigen were performed as follows. […] Plates were washed four times with PBS containing 0.02% Tween 20. […] Plates were washed four times after blocking with PBS containing 0.02% Tween 20.
One hundred microliters of 10 ng/mL goat anti-human IgG-FC specific HRP conjugated antibody (Southern Biotech #2040-05, Birmingham, Ala.) was added to each well of the desired target antigen plate or anti-polyHistidine antibody/Histidine tagged desired target antigen plate. Alternatively, one hundred microliters of 10 ng/mL goat anti-human IgG-kappa light chain specific HRP conjugated antibody (Southern Biotech #2060-05 Birmingham, Ala.) was added to each well of the desired target antigen/FC fusion plate and incubated for 1 hour at room temperature. Plates were washed 4 times with PBS containing 0.02% Tween 20.

[2] = biological target: T2, rhIL-13 (recombinant human IL-13) (human, UniProt P35225 35-146, limits assumed); assay: cell-based or functional assay
T2 sequence (P35225 35-146 limits assumed): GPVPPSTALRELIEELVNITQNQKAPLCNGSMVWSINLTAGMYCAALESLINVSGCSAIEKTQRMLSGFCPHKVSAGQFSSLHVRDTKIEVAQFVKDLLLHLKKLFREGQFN

[3] = biological target: T2, rhIL-13 (recombinant human IL-13); assay: SPR (Biacore 3000), mAb captured by anti-human IgG Fc, antigen in solution
Description: Unreacted moieties on the biosensor surface were blocked with ethanolamine. Modified carboxymethyl dextran surface in flowcell 2 and 4 was used as a reaction surface.

EC50 [1]: 280 pM
B1: AB016 (antibody, V domains shown)
VH: EVQLVESGGGLVQPGGSLRLSCAASGFSFSSEPISWVRQAPGKGLEWVSSITGKNGYTYYADSVKGRFTISADTSKNTAYLQMNSLRAEDTAVYYCARWGKKVYGMDVWGQGTLVTVSS
VL: DIQMTQSPSSLSASVGDRVTITCRASQSISSYLAWYQQKPGKAPKLLIYGASSRASGVPSRFSGSGSGTDFTLTISSLQPEDFATYYCQQYMSVPITFGQGTKVEIKR
notes: Parent antibody

IC50 (nM), A549 bioassay (IL-13 induced TARC) [2]: 0.2 nM
Kd [3]: 150 pM
B2: 13C5.5 (antibody, V domains shown)
VH: EVTLRESGPGLVKPTQTLTLTCTLYGFSLSTSDMGVDWIRQPPGKGLEWLAHIWWDDVKRYNPALKSRLTISKDTSKNQVVLKLTSVDPVDTATYYCARTVSSGYIYYAMDYWGQGTLVTVSS
VL: DIQMTQSPSSLSASVGDRVTISCRASQDIRNYLNWYQQKPGKAPKLLIFYTSKLHSGVPSRFSGSGSGTDYTLTISSLQPEDIATYYCQQGNTLPLTFGGGTKVEIKR
notes: Monoclonal antibody; also called AB231

IC50 (nM), A549 bioassay (IL-13 induced TARC) [2]: 0.31 nM
Kd [3]: 240 pM
B3: 13C5.5L3F (antibody, V domains shown)
VH: B2 VH
VL: B2 VL with N92L, L94P
notes: Monoclonal antibody; also called AB232
